Assay results reported in US5108916A, “Process for stereoselectively hydrolyzing, transesterifying or esterifying with immobilized isozyme of lipase from Candida rugosa” (priority 1989, dated 1992).

B1: Mucor miehei: Mucor miehei lipase (protein, UniProt P19515 95-363, looked up)
Lipase: SIDGGIRAATSQEINELTYYTTLSANSYCRTVIPGATWDCIHCDATEDLKIIKTWSTLIYDTNAMVARGDSEKTIYIVFRGSSSIRNWIADLTFVPVSYPPVSGTKVHKGFLDSYGEVQNELVATVLDQFKQYPSYKVAVTGHSLGGATALLCALDLYQREEGLSSSNLFLYTQGQPRVGDPAFANYVVSTGIPYRRTVNERDIVPHLPPAAFGFLHAGEEYWITDNSPETVQVCTSDLETSDCSNSIVPFTSVLDHLSYFGINTGLCT
B2: acetylcholinesterase of T. californica: acetylcholine esterase from Torpedo californica (protein, UniProt P04058 22-564, looked up)
Acetylcholinesterase: DDHSELLVNTKSGKVMGTRVPVLSSHISAFLGIPFAEPPVGNMRFRRPEPKKPWSGVWNASTYPNNCQQYVDEQFPGFSGSEMWNPNREMSEDCLYLNIWVPSPRPKSTTVMVWIYGGGFYSGSSTLDVYNGKYLAYTEEVVLVSLSYRVGAFGFLALHGSQEAPGNVGLLDQRMALQWVHDNIQFFGGDPKTVTIFGESAGGASVGMHILSPGSRDLFRRAILQSGSPNCPWASVSVAEGRRRAVELGRNLNCNLNSDEELIHCLREKKPQELIDVEWNVLPFDSIFRFSFVPVIDGEFFPTSLESMLNSGNFKKTQILLGVNKDEGSFFLLYGAPGFSKDSESKISREDFMSGVKLSVPHANDLGLDAVTLQYTDWMDDNNGIKNRDGLDDIVGDHNVICPLMHFVNKYTKFGNGTYLYFFNHRASNLVWPEWMGVIHGYEIEFVFGLPLVKELNYTAEEEALSRRIMHYWATFAKTGNPNEPHSQESKWPLFTTKEQKFIDLNTEPMKVHQRLRVQMCVFWNQFLPKLLNATACDGELSS

Legend:
[1] = Hydrolysis of ketoprofen esters by lipases, acid by HPLC, ee via diastereomeric amides; assay type: biochemical
Method: To a solution of 9ml of 100mM ammonium phosphate (pH 5.5) in 50 ml Erlenmeyer flask a weighed amount of ester (either directly or dissolved in 200 ul DMF) was added. A solution of the weighed amount of enzyme in 1 ml of the same buffer was added. The mixture was agitated in a rotary shaker at 250 RPM at 35° C. typically for 22 hours. The reaction mixture was acidified with 8 drops 6(N) HCl to pH 1.5-2.0, extracted with CHCl3 (2×10 ml). The CHCl3 solution was analyzed by HPLC to determine the percent of acid produced in the hydrolysis.
The CHCl3 extract (5 ml) of the hydrolysis reaction was dried over anhydrous Na2 SO4 and filtered. The filtrate was cooled to 0° C. in stoppered vials and 100 ul of N-methylmorpholine, followed by 100 ul of isobutyl chloroformate were added. After gently shaking at 0° C. for 10 minutes, 100 ul of D-(+)-1-phenylethylamine was added and gently shaking at 0° C. was continued for 5 minutes. The reaction mixture was then shaken at room temperature for 5 minutes. The reaction mixture was washed with water (5 ml), 1(N) HCl (5 ml) and again with water (5 ml). The diastereomeric amides produced were then analyzed by HPLC on a column as specifically noted to determine the ee (%S-%R) of the acid produced by enzymatic hydrolysis of the esters.
Ketoprofen esters (50 mg) were hydrolyzed as above. HPLC analysis for the amount of acid produced for the ketoprofen monoglyceride and ketoprofen ethylene glycol ester hydrolysis were performed on Partisil 5 ODS-3 RAC column (9.4 mm×100 mm, Whatman) using CH3 OH: 10mM (NH4)H2 PO4 (60:40) at 4 ml/min and monitoring at 254 nm. HPLC analysis of the acid produced in the hydrolysis of the other esters were done on ODS-3 RAC column using CH3 OH: 10 mM (NH4)H2 PO4 (80:20) at 2ml/min and monitoring at 254 nm. The enantiomeric excess of the ketoprofen produced for each hydrolysis was determined by analysis of the amides by HPLC on ODS-3 RAC column using CH3 OH:10 mM (NH4)H2 PO4 (60:40) at 4 ml/min and monitoring at 254 nm. […]
To determine whether oleic acid could be used to enhance the rate/selectivity using other lipase and/or substrates, the following experiment was performed. 50 mg of either the diethylene glycol ester, triethylene glycol monomethyl ester, monoglyceride ester, or ethylene glycol ester was placed in 50 ml Erlenmeyer flasks. To this was added 50 mg of Lipase MY, 50 mg of the Mucor miehei lipase, 2.5 mg of the Candida cylindracea lipase (Biocatalyst), or 5 mg of lipase OF, all in 1 ml of buffer. 10 ul of pig liver esterase was also used. Oleic acid was added to the flasks at 200 ul. Buffer was added to a final volume of 10 ml, and the flasks were incubated at 35.C, 250 rpm, acidified, and extracted with CHCl3 and analyzed by HPLC as in Example 18.

[2] = Hydrolysis of R,S-HPPA methyl ester by free lipase or isozyme in aqueous buffer, R and S acids by HPLC; assay type: biochemical
Method: Lipase MY (Meito Sangyo), 340mg, 4g of R,S-HPPA methyl ester, and 200ml of 20mM KH2 PO4 (adjusted to pH 6.5) were mixed, with shaking, for 5.5 hours.
Analysis of the acid formed was carried out by extraction of the ester after adjustment of the aqueous solution to pH 6.5 (a slight pH drop occurs on hydrolysis) with CH2 Cl2 followed by adjusting the pH to 2 and extraction of the acid with ethyl acetate. The solution was evaporated to dryness, taken up in water and analyzed by HPLC with a Macherey Nagel-Duren Resolvosil BSA- column using 5% n-propanol, 10mM KH2 PO4, pH 5 at 2.7ml/min with detection at 220nm. At that time 35% of the R, S-ester was converted to the acid. The ratio of R and S acids was 94% R and 6% S.
Lipase MY (Meito Sangyo), Candida lipase B (Biocatalyst, Ltd), lipase OF (Meito Sangyo), and Lipase AY (Amano) were compared for stereoselectivity for production of R-HPPA from R,S-HPPA methyl ester. The preparations, in amounts shown in Table I, were added to 50 ml of 20 mM HPPA methyl ester in 50 mM KH2 PO4 pH 6.5. […] The ratio of R to S acid was determined by HPLC as described in Example 3 at approximately 16% hydrolysis of the ester.
Two hundred mls of KH2 PO4 (pH 6.5) was combined with 400 mg HPPA-Me and 500 units of T. californica acetylcholine esterase. The reaction mixture was shaken for 24 hours and then sampled and analyzed as in Example 3. […]

[3] = diethylene glycol ester, enzyme alone
[4] = ethylene glycol ester, + oleic acid
[5] = ethylene glycol ester, enzyme alone
[6] = monoglyceride ester, + oleic acid
[7] = monoglyceride ester, enzyme alone
[8] = monomethyl triethylene glycol ester, + oleic acid
[9] = monomethyl triethylene glycol ester, enzyme alone

| Molecule | % ee (R = R-acid) ([1]; diethylene glycol ester, + oleic acid) | % Acid ([1]; diethylene glycol ester, + oleic acid 200 ul) | % Acid [1, 3] | % ee (R = R-acid) [1, 3] | % Acid [1, 4] | % ee (R = R-acid) [1, 4] | % Acid [1, 5] | % ee (R = R-acid) [1, 5] | % Acid [1, 6] | % ee (R = R-acid) [1, 6] | % Acid [1, 7] | % ee (R = R-acid) [1, 7] | % Acid [1, 8] | % ee (R = R-acid) [1, 8] | % Acid [1, 9] | % ee (R = R-acid) [1, 9] | stereoselective hydrolysis of HPPA-Me to R-HPPA [2] | hydrolyzing activity on HPPA-Me ([2]; 500 units, 400 mg HPPA-Me, pH 6.5, 24 hours) |
| --- | --- | --- | --- | --- | --- | --- | --- | --- | --- | --- | --- | --- | --- | --- | --- | --- | --- | --- |
| B1 | 2R | 20% | 24% | 41R | 10% | 42R | 17% | 54R | 4% | 35R | 20% | 40R | 6% | 1R | 26% | 36R | – | – |
| B2 | – | – | – | – | – | – | – | – | – | – | – | – | – | – | – | – | did not stereoselectively hydrolyze | Very little hydrolyzing activity |
